Results published in patent US20240083965A1 (Novo Nordisk, published 2024).
*1 amine or outer side, *2 acyl side, *3 side chain or, on linkers, in order; H or OH if unused. Where no end group is shown, it is not given here. Side-chain parts run from the residue outwards. [ ]: non-standard residue; d: D form. The star is where a group is joined. C16 diacid = O=C(O)CCCCCCCCCCCCCCC(=O)*; γGlu = O=C(O)[C@H](CCC(=O)[*:2])N[*:1]; AEEA = NCCOCCOCC(=O)O; Aib = CC(C)(N)C(=O)O

T1: human GIP receptor (human, UniProt P48546 22-466)
T1 sequence (looked up): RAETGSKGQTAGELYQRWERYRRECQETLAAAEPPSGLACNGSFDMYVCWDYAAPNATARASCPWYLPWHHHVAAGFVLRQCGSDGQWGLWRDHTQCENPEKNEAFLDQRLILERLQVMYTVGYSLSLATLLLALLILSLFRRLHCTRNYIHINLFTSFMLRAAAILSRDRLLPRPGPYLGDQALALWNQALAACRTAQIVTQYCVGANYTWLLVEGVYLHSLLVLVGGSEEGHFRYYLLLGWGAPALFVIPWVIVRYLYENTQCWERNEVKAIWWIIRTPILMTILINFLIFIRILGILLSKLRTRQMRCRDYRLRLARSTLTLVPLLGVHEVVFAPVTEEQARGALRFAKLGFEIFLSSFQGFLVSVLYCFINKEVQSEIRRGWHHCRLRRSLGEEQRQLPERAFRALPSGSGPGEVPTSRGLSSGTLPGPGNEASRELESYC


Experiments:
[1] = target: T1, human GIP receptor; test: cell-based or functional assay
[2] = target: human GLP-1 receptor (human, UniProt P43220 24-463); test: cell-based or functional assay

Row | Molecule | hGIPR, CRE Luc 0% HSA EC50 (pM) [1] [pM] | hGIPR, CRE Luc 1% HSA EC50 (pM) [1] [pM] | hGLP-1R, CRE Luc 0% HSA EC50 (pM) [2] [pM] | hGLP-1R, CRE Luc 1% HSA EC50 (pM) [2] [pM]
1 | human GIP (from UniProt P09681 52-93) (ligand) | 11.3 | 6.4 | – | –
2 | Y[Aib]EGTFTSDYSILLEEQAAREFIEWLLAGGPSKGAPPPS-OH (not fully specified (residue 33)) [Parent compound No. 3] | 5.6 | 444 | 4 | 360
3 | Y[Aib]EGTFTSDYSILLEKQAAREFIEWLLAGGPSSGAPPPS-OH (not fully specified (residue 16)) [Parent compound No. 4] | 4.7 | 188 | 4.2 | 202
4 | Y[Aib]EGTFTSDYSILLEEQAAREFIEWLLAGGPSK([AEEA-AEEA-γGlu-C16 diacid])GAPPPS-OH (N-terminus assumed; SMILES CC[C@H](C)[C@H](NC(=O)[C@H](Cc1ccccc1)NC(=O)[C@H](CCC(=O)O)NC(=O)[C@H](CCCNC(=N)N)NC(=O)[C@H](C)NC(=O)[C@H](C)NC(=O)[C@H](CCC(N)=O)NC(=O)[C@H](CCC(=O)O)NC(=O)[C@H](CCC(=O)O)NC(=O)[C@H](CC(C)C)NC(=O)[C@H](CC(C)C)NC(=O)[C@@H](NC(=O)[C@H](CO)NC(=O)[C@H](Cc1ccc(O)cc1)NC(=O)[C@H](CC(=O)O)NC(=O)[C@H](CO)NC(=O)[C@@H](NC(=O)[C@H](Cc1ccccc1)NC(=O)[C@@H](NC(=O)CNC(=O)[C@H](CCC(=O)O)NC(=O)C(C)(C)NC(=O)[C@@H](N)Cc1ccc(O)cc1)[C@@H](C)O)[C@@H](C)O)[C@@H](C)CC)C(=O)N[C@@H](CCC(=O)O)C(=O)N[C@@H](Cc1c[nH]c2ccccc12)C(=O)N[C@@H](CC(C)C)C(=O)N[C@@H](CC(C)C)C(=O)N[C@@H](C)C(=O)NCC(=O)NCC(=O)N1CCC[C@H]1C(=O)N[C@@H](CO)C(=O)N[C@@H](CCCCNC(=O)COCCOCCNC(=O)COCCOCCNC(=O)CC[C@H](NC(=O)CCCCCCCCCCCCCCC(=O)O)C(=O)O)C(=O)NCC(=O)N[C@@H](C)C(=O)N1CCC[C@H]1C(=O)N1CCC[C@H]1C(=O)N1CCC[C@H]1C(=O)N[C@@H](CO)C(=O)O) [Parent compound No. 1] | 3.1 | 156 | 2.1 | 154
5 | Y[Aib]EGTFTSDYSILLEEQAAREFIEWLLAGGPSKGAPPPS-OH (not fully specified (residue 33)) [Parent compound No. 2] | 1.8 | 97 | 1.5 | 111
